One molecule from article PMC2191977 (The Journal of Experimental Medicine, 1995) can be followed below.

Substitutions are numbered along the chain they refer to.

Common to all, as to assay: flow cytometry on cells
A general note: Flow cytometry measures light scatter and fluorescence of single cells or particles in a stream.

The target of one test is T1, B7 L179V (mouse, UniProt Q00609 38-306, L179V).
T1 sequence (looked up): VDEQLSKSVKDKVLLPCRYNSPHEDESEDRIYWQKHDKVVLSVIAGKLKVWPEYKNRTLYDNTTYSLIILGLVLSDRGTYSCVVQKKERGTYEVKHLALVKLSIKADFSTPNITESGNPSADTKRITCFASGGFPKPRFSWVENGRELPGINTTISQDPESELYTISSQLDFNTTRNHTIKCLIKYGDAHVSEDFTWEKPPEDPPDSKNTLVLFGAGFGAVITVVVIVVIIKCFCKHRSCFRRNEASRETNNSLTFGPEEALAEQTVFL

Another test deals with T2, B7 E180D (mouse, UniProt Q00609 38-306, E180D).
T2 sequence (looked up): T1 sequence (looked up) with V142L, E143D

The next test addresses T3, B7 QD/LE (Q194L, D195E) (mouse, UniProt Q00609 38-306, Q194D195>LE).
T3 sequence (looked up): T1 sequence (looked up) with V142L, Q157L, D158E

The target of a further test is T4, B7 Y201A (mouse, UniProt Q00609 38-306, Y201A).
T4 sequence (looked up): T1 sequence (looked up) with V142L, Y164A

The target of a further test is T5, murine B7 (wild type) (mouse, UniProt Q00609 38-306).
T5 sequence (looked up): T1 sequence (looked up) with V142L

In a further test the target is T6, B7 P172A (mouse, UniProt Q00609 38-306, P172A).
T6 sequence (looked up): T1 sequence (looked up) with P135A, V142L

B1: CD28Ig (Fc fusion, mouse, UniProt P31041 20-150, looked up)
chain: NKILVKQSPLLVVDSNEVSLSCRYSYNLLAKEFRASLYKGVNSDVEVCVGNGNFTYQPQFRSNAEFNCDGDFDNETVTFRLWNLHVNHTDIYFCKIEFMYPPPYLDNERSNGTIIHIKEKHLCHTQSSPKL
For the molecule B1, the “% wild-type B7 binding (normalised to anti-B7 mAb 10.16A.1)” value stood at 18% in the test with B7 L179V; 68% with B7 E180D; 11% with B7 QD/LE (Q194L, D195E); 3% in the test with B7 Y201A; 100% with murine B7 (wild type); 7% with B7 P172A. For the same molecule, the “MF (mean fluorescence, control subtracted)” value with B7 L179V was found to be 12 MF; in the test with B7 E180D it was 38 MF; in the test with B7 QD/LE (Q194L, D195E) it was 3 MF; with B7 Y201A it was 1 MF; with B7 P172A it was 2 MF.
